Substrate: O=[N+]([O-])c1ccccc1O[C@@H]1O[C@H](CO)[C@H](O)[C@H](O)[C@H]1O
Assay: purified protein
Type: biochemical, Kosakonia oryzendophytica
Details: pH 7.0, 100 mM HEPES, 50 °C, 5 min, ONPG 0.3-50 mM, fit called substrate inhibition curve (Figure S4)

B1: Koor β-gal (Kosakonia oryzendophytica) (protein)
chain: MSASALRTLISRRDWENPVITHWHRLPAHAPMRSWRDEQAARDNAPSSAHRLLNGEWYFRFFPAPEAVPERWITEEYDDAVAMPVPSNWQMQGFDTPIYTNVTYPIPVNPPFVPQQNPTGCYSLTFEMTAQALAQGQTRIVFDGVNSAFYLWCNGQWIGYSQDSRLPAEFDLSDVLHVGQNRLAVMVLRWCDGSYLEDQDMWRMSGIFRDVSLQHKPATHIADFHHTTELNAEFTHGQVKVDLRLAGEYSACQVAVALWHGEEKIAQAQQAPGSAIVDERGAWAERLSVSLPVSDPLLWSAETPHLYRLTLTLLDGLGNVLEVEACNVGFRKVEISNGLLKLNGKPLLIRGVNRHEHHPENGQAIDEATMRRDIELMKQHNFNAVRCSHYPNHPLWYSLCDEYGLYVVDEANIETHGMTPMSRLSDDPQWLPAMSERVTRMVLRDRNHPSIIIWSLGNESGHGASHDALYRWLKTTDPTRPVQYEGGGANTAATDIICPMYARVDEDQPFPAVPKWSIKKWIGLPDETRPLILCEYAHAMGNSFGGFAKYWQAFRETPRLQGGFVWDWVDQALTKTDTNGQSFWAYGGDFGDTPNDRQFCMNGLVFPDRTPHPALYEAQRAQQFFQFRLLNTTPLVIEVESEYLFRTTDNEYLRWAVVRDGLVLAQGEITLAIAPQGKQQIALTIPELESAPGEVWLNVDVYQKAATPWSDAEHHCAWDQWRLPSPLFIAPRKTVSSRPMLVVSEEEYVIHHRNQRWQFCRRSGDLIQWWRDEQPTLLTPLRDSFARAPLDNDIGISEVTRIDPNAWVERWKAAGMYDLRAELLACEVEEHAADIVVTTTHCWSGAGKTGFVSHKRWRIDGEGVLHGEVDVQVATDIPPPARIGLVCQLSEVQASVSWLGLGPHENYPDRKLAARQGRWTLPLAALHTPYIFPGENGLRCETRELHYGAHHLNGDFHFSLGRYSDKQLRETTHHHLLREEAGCWLHLDAFHMGVGGDDSWSPSVSPEFILRSERVRYAFCWRQD
notes: C-terminal 6xHis tag, pET-28a(+) NcoI/XhoI, E. coli BL21(DE3), Ni-NTA; synthetic gene
B1 showed a Km of 6.0 ± 0.3 mM and a kcat of 732.7 ± 43.5 s⁻¹.
